Data on three substances can be found in PMC7124958.

What all share (assay): MST
Assay [1] has as its target R663H human β-cardiac short S1 (sS1) (human) (UniProt P12883).
Assay [2] has as its target WT human β-cardiac short S1 (sS1) (human) (UniProt P12883).
In assay [3] the target is R663H human β-cardiac 25-hep HMM (UniProt P12883).
In assay [4] the target is WT human β-cardiac 25-hep HMM (UniProt P12883).
For assay [5], the target named is C0-C7 fragment of human cardiac myosin binding protein-C (MyBP-C) (human).

As to “proximal S2 of human β-cardiac myosin (from UniProt P12883 1-1935) (domain or fragment)”, the Kd in assay [1] is 58 µM; in assay [2] it was 62 µM.

“C0-C7 fragment of human cardiac myosin binding protein-C (MyBP-C) (domain or fragment)”: the dissociation constant (Kd) in assay [3] was found to be 1100 nM; in assay [4], 1500 nM.

The substance “WT human β-cardiac 25-hep HMM (from UniProt P12883 1-1016; P08590 1-195) (complex)” showed an equilibrium dissociation constant (Kd) in assay [5] of 1100 nM.

Usually Kd stands for the constant that tells how readily two partners part at equilibrium. A low value points to tighter binding.
